Results on one molecule are retold here after patent US20150125454A1 (Daiichi Sankyo, published 2015).

For this test, the target named is human FGFR2 IIIc variant protein (isoform 1: NP-000132) (human, UniProt P21802 22-821). Kind of test: flow cytometry (MFI) on transfected HEK293T cells, hybridoma supernatant; non-binding implied by 'selectively', values only in FIG. 1. The protocol: Each human FGFR expression vector constructed in Examples 1)-3-1 and 2)-1-1 was transfected to HEK293T cells by the method shown in Example 1)-5-1. The cell suspension was centrifuged to remove the supernatant. Then, these various human FGFR expression vector-transfected HEK293T cells and the pcDNA-DEST40-transfected HEK293T cells were separately suspended by the addition of the hybridoma culture supernatant containing the FR2-10, FR2-13, or FR2-14 antibody and left standing at 4° C. for 1 hour. The cells were washed twice with PBS containing 5% FBS, then suspended by the addition of Anti-Rat IgG FITC conjugate (manufactured by Sigma-Aldrich Corp.) diluted 320-fold with PBS containing 5% FBS, and left standing at 4° C. for 1 hour. The cells were washed 3 times with PBS containing 5% FBS and then resuspended in PBS containing 5% FBS and 2 μg/ml 7-aminoactinomycin D (manufactured by Molecular Probes, Inc.), followed by detection using a flow cytometer (FC500; manufactured by Beckman Coulter Inc.). The data was analyzed using Flowjo (manufactured by Tree Star Inc.). After removal of 7-aminoactinomycin D-positive dead cells by gating, the FITC fluorescence intensity of live cells was plotted to a histogram to calculate average fluorescence intensity (MFI).
(In general: A flow cytometer gives signals particle by particle.)

Sequence of human FGFR2 IIIc variant protein (isoform 1: NP-000132) (P21802 22-821 limits assumed, change not shown): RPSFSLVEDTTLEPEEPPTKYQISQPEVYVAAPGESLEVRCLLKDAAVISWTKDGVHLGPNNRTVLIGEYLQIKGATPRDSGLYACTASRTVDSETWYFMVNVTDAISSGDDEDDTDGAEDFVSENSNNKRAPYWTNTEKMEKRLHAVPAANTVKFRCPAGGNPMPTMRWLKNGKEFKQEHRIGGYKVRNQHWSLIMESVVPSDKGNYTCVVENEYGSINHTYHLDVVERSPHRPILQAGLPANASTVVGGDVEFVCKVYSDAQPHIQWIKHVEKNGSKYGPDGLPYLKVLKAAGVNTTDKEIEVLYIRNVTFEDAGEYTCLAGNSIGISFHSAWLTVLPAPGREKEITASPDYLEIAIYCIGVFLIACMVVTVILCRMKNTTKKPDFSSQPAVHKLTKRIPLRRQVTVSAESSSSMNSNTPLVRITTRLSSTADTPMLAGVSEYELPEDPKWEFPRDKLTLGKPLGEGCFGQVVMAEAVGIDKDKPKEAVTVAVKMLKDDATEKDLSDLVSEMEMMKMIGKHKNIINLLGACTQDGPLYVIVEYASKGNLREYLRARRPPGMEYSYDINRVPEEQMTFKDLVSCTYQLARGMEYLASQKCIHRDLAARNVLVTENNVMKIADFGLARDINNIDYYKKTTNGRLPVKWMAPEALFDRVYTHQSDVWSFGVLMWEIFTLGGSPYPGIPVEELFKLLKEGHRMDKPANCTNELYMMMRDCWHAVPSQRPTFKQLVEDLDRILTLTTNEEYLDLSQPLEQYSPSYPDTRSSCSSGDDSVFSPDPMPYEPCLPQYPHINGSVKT

B1: rat anti-FGFR2 antibody FR2-10 (antibody, IgG2a, V domains shown)
VH: EVQLVESGGGLVQPGRSLKLSCVASGFRFNDFWMTWIRQAPGKGLEWVASITYTGDNTYYAGSVKGRITISRDNAKSTLYLQMNSLRSEDTATYYCTRDDYGGYSPYYMDAWGQGTSVTVSS
VL: DIQMTQSPSSLSAFLGDRVTITCRASQDIGNYLRWFQQKPGKSPRLMIYGATNLANGVPSRFSGSRSGSDYSLTINNLESEDMAIYYCLKHNEYPFTFGSGTKLEIKR
notes: Used as hybridoma culture supernatant in flow cytometry and as antibody purified from ascites elsewhere; also called rat FR2-10 antibody
As to B1, the binding result is recorded as “no binding”.
